# US20160340421A1 (Regeneron, published 2016)
# T1: Human GDF8 homodimer (mature human Growth and Differentiation Factor-8) (human, UniProt O14793 267-375)
# T1 construct: also called hGDF8; myostatin
# T1 sequence: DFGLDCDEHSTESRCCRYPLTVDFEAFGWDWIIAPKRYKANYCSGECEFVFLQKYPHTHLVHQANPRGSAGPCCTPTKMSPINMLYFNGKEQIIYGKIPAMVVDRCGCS
# T2: hGDF11 homodimer (human, UniProt O95390 299-407)
# T2 sequence (looked up): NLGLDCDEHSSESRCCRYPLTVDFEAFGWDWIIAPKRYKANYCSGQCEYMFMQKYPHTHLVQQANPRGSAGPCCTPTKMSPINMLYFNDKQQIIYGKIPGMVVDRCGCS
# B1: H4H1669P (antibody, V domains shown)
# VH: QVQLVESGGGVVQPGKSLRLSCAASGFTFSSFGMHWVRQAPGKGLEWVAVIGYDGGNEYYADSVKGRFTISRDNSKNTLNLQMSSLRAEDTAVYYCSTISHYDILSGMDVWGRGTTVTVSS
# VL: DIQMTQSPSSVSASVGDRVTITCRASQGISNWLAWYQQKPGKAPKLLIFAASSLQSGVPSRFSGSASGTDFTLTINSLQPEDFATYYCQQANSFPLTFGGGTKVEIKR
# notes: captured by anti-hFc, so human Fc
# B2: 4G3-25 (antibody, V domains shown)
# VH: QVQLVESGGGVVQPGRSLRLSCVVSGFNFSRNGIHWVRQAPGKGLEWVAVISYDGRNKFYVESVKGRFTISRDNSKNTLYLQMNSLRVEDTAVYYCAKSSIGGFFEYWGQGTLVTVSS
# VL: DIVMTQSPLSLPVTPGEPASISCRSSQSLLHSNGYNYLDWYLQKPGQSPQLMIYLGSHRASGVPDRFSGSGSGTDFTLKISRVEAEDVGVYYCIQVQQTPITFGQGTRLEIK
# B3: 21-E5 (antibody, V domains shown)
# VH: QVQLVESGPGLVKPSETLSLTCTVYGGSISSGNYYWGWIRQPPGKGLEWIGTIYYSGSAYYNPSLKSRVTMSVDTSKNQFSLKLSSVTAADTAVYYCVRDYYDSSGHYYNWFDPWGQGTTVTVSS
# VL: AIQMTQSPSSLSASVGDRVTITCRASQDIRHDLGWYQQKPGKAPKRLIYAASSLQSGVPSRFSGSGSGTEFTLTISSLQPEDFATYYCLQHNTYPWTFGQGTKVEIKR
# B4: 21-A2 (antibody, V domains shown)
# VH: QVQLVQSGGGLVQPGGSLRLSCAASGFTFNTYAISWVRQAPGKGLEWVSTITGSGYNTYYADSVKGRFTISRDNSKNTLYLQMSSLRAEDTAVFYCAKDSRYNWNYGIFDYWGQGTTVTVSS
# VL: DIQMTQSPATLSVSPGERATLSCRASQSVSSNLAWYHQKPGQAPRLLIYGVSTRATGIPARFSGNGSGTEFTLTISSLQSEDFAVYYCQQHNNWPLTFGGGTKVEIKR
# B5: 1A2-hIgG (antibody, V domains shown)
# VH: EVQLLESGGGLVQPGGSLRLSCAASGFTSITYAMSWVRQAPGKGLEWVSAISVSGTNTYYADSVKGRFTISRDKSKNMLYLQMNSLRAEDTAVYYCAKDLLHNWKYGTFDIWGQGTMVTVSS
# VL: EIVMTQSPATLSVSPGERATLSCRASQSVDSNLVWYQQKPGQVPRLLIYGASTRATGIPARFSGSGSGTEFTLTISSLQSEDFAVYYCQQYNKWPLTFGGGTKVEIK
# notes: variable domains of 1A2
# B6: 1A2-hIgG1 (antibody, V domains shown)
# VH: B5 VH
# VL: B5 VL
# notes: variable domains of 1A2; also called 1A2-hlgG1
# B7: 1A2-mIgG (antibody, V domains shown)
# VH: B5 VH
# VL: B5 VL
# notes: variable domains of 1A2
# Key:
# [1] = molecular target: T1, Human GDF8 homodimer (mature human …); assay: SPR Biacore T100, captured on anti-hFc, 25°C
# Experimental: (§1) Additional antigen binding experiments were conducted in which GDF8 and GDF11 were applied over a surface of selected anti-GDF8 antibodies and control antibodies at 25° C. and 37° C. Equilibrium dissociation constants (KD values) for antigen binding to selected antibodies were determined by surface kinetics using a real-time biosensor surface plasmon resonance assay (BIACORE™ T100). […] Various concentrations (2.5-0.625 nM, 2-fold dilutions) of hGDF8 homodimer or hGDF11 homodimer (or in some experiments, Activin A) were injected over the captured antibody surfaces, and antigen-antibody binding and dissociation were monitored in real time. Kinetic analysis was performed to calculate KD, dissociation rate constants (kd), association rate constants (ka) and half-life of antigen/antibody complex dissociation. (NB=no binding observed).
# [2] = molecular target: T1, Human GDF8 homodimer (mature human …); assay: cell-based or functional assay
# [3] = molecular target: T1, Human GDF8 homodimer (mature human …); assay: SPR Biacore T100, captured on anti-hFc, 37°C
# Experimental: as §1
# hGDF11 homodimer [4] = molecular target: T2, hGDF11 homodimer; assay: GDF11-inducible luciferase bioassay, 0.4 nM GDF11 (legend: NB=no binding)
# [5] = molecular target: T1, Human GDF8 homodimer (mature human …); assay: SPR, antibody captured, 25 nM antigen
# Experimental: (§2) Equilibrium dissociation constants (KD values) for antigen binding to selected antibodies were determined by surface kinetics using a real-time biosensor surface plasmon resonance assay (BIACORE™ 2000). Each selected antibody was captured on either a goat anti-mouse IgG polyclonal antibody surface or a goat anti-hFc polyclonal antibody (Jackson Immuno Research Lab) surface created through direct chemical coupling to a BIACORE™ chip to form a captured antibody surface. Human GDF8 homodimer, hGDF11 homodimer, or hGDF5 homodimer at 25 nM was injected over the captured antibody surfaces, and antigen-antibody binding and dissociation were monitored in real time at room temperature. Kinetic analysis was performed to calculate KD, dissociation rate constants (kd), association rate constants (ka) and half-life of antigen/antibody complex dissociation (Table 2).
# hGDF11 homodimer [6] = molecular target: T2, hGDF11 homodimer; assay: SPR, antibody captured, 25 nM antigen
# Experimental: as §2
# [7] = molecular target: T1, Human GDF8 homodimer (mature human …); assay: cell-based or functional assay; remark: listed apart in the source
# hGDF11 homodimer [8] = molecular target: T2, hGDF11 homodimer; assay: cell-based or functional assay
# hGDF11 homodimer [9] = molecular target: T2, hGDF11 homodimer; assay: cell-based or functional assay; remark: listed apart in the source
# [10] = molecular target: T1, Human GDF8 homodimer (mature human …); assay: SPR, antibody captured, buffer without BSA
# Experimental: as §2
# hGDF11 homodimer [11] = molecular target: T2, hGDF11 homodimer; assay: SPR, antibody captured, buffer without BSA
# Experimental: as §2
binder,measurement,setting,value
B1,Kd,[1],0.0393 nM
same,T1/2,[1],131 min
same,"IC50, luciferase bioassay, 0.5 nM GDF8",[2],0.9 nM
same,Kd,[3],0.0584 nM
same,T1/2,[3],40 min
same,binding result,hGDF11 homodimer [4],no binding
B2,Kd,[5],3.9 nM
same,T1/2,[5],25 min
same,Kd,hGDF11 homodimer [6],1.41 nM
same,T1/2,hGDF11 homodimer [6],39 min
same,"IC50, GDF8-inducible luciferase, A204/Smad2 cells, 0.8 nM GDF8",[7],> 25 nM
same,"IC50, GDF11-inducible luciferase, A204/Smad2 cells, 0.8 nM GDF11",hGDF11 homodimer [8],> 25 nM
B3,Kd,[5],0.26 nM
same,T1/2,[5],138 min
same,Kd,hGDF11 homodimer [6],0.12 nM
same,T1/2,hGDF11 homodimer [6],116 min
same,"IC50, luciferase bioassay, 0.5 nM GDF8",[2],2.34 nM
same,"IC50, luciferase bioassay, 1 nM GDF8",[2],2.98 nM
same,"IC50, luciferase bioassay, 0.4 nM GDF11",hGDF11 homodimer [9],6.9 nM
same,"IC50, luciferase bioassay, 0.8 nM GDF11",hGDF11 homodimer [9],10.5 nM
same,"IC50, GDF8-inducible luciferase, A204/Smad2 cells, 0.8 nM GDF8",[7],8.5 nM
same,"IC50, GDF11-inducible luciferase, A204/Smad2 cells, 0.8 nM GDF11",hGDF11 homodimer [8],35 nM
B4,Kd,[5],0.4 nM
same,T1/2,[5],78 min
same,Kd,hGDF11 homodimer [6],0.9 nM
same,T1/2,hGDF11 homodimer [6],21 min
same,"IC50, GDF8-inducible luciferase, A204/Smad2 cells, 0.8 nM GDF8",[7],9.7 nM
same,"IC50, GDF11-inducible luciferase, A204/Smad2 cells, 0.8 nM GDF11",hGDF11 homodimer [8],> 10 nM
B5,Kd,[10],0.006 nM
same,T1/2,[10],340 min
same,Kd,hGDF11 homodimer [11],0.64 nM
same,T1/2,hGDF11 homodimer [11],6 min
B6,Kd,[1],0.0623 nM
same,T1/2,[1],96 min
same,Kd,[3],0.0462 nM
same,T1/2,[3],39 min
B7,Kd,[10],0.018 nM
same,T1/2,[10],152 min
same,Kd,hGDF11 homodimer [11],0.926 nM
same,T1/2,hGDF11 homodimer [11],1 min
